The assay concerns AT derm mice (pTek-tTA:pTetOS-Tek). Description: Enforced expression of Ang1 or Ang2 in AT derm mice (triple transgenic). In kind it is in vivo. The settings on record: for atopic dermatitis phenotype (erythema, ear micro-haemorrhages, tail scaly plaque): transgenic overexpression in the vasculature of AT derm mice. From the text: Briefly, construction of the driver transgene, pTek-tTA, and the responder transgenes, pTetOS-Tek, pTetos-Ang1, and pTetos-Ang2 have been described previously. All transgenic lines were maintained and genotyped as previously described (Voskas et al. (2005) Am. J. Pathol. 166(3):843-855, Ward et al. (2004) Am. J. Pathol. 165(3):889-899, Bureau et al. (2006) Am. J. Physiol. Heart Circ. Physiol. 291(2):H948-965). Males were housed with a single female for 14 to 20 days and then separated into individual cages. CD1 mice (an outbred mouse line) were maintained in a barrier facility. All adult mice used in these studies were 2 to 6 months old.
The present inventors have previously shown that enforced overexpression of the Tie2 receptor in the vasculature results in an inflammatory skin phenotype in mice (FIG. 3A) that is consistent with many hallmarks of human atopic dermatitis/psoriasis (Voskas et al. (2005) Am. J. Pathol. 166(3), 843-855, Voskas et al. (2009) J. Leukoc. Biol. 84(1), 59-67). […] Using common mouse transgenic approaches, a system was devised in which the impact of enforced expression of Ang1 or Ang2 could be assessed in this mouse model of inflammatory skin disease. This is the first such system where the implications of Ang1 or Ang2 expression can be simultaneously addressed in a single pathological state. […] This was marked by a gross reduction in snout, conjunctiva, ear and paw erythema (FIGS. 3C-E).

For “Ang2: Angiopoietin 2, natural antagonist of Ang1, overexpressed from the pTetOS-Ang2 transgene”, the “atopic dermatitis phenotype (erythema, ear micro-haemorrhages, tail scaly plaque)” value is recorded as “exacerbated all of the noted phenotypic hallmarks”.

B1: Ang1: Angiopoietin 1, Tie2 ligand, overexpressed in the vasculature from the pTetOS-Ang1 transgene (protein, UniProt Q15389 16-498, looked up)
Angiopoietin-1: HIGCSNQRRSPENSGRRYNRIQHGQCAYTFILPEHDGNCRESTTDQYNTNALQRDAPHVEPDFSSQKLQHLEHVMENYTQWLQKLENYIVENMKSEMAQIQQNAVQNHTATMLEIGTSLLSQTAEQTRKLTDVETQVLNQTSRLEIQLLENSLSTYKLEKQLLQQTNEILKIHEKNSLLEHKILEMEGKHKEELDTLKEEKENLQGLVTRQTYIIQELEKQLNRATTNNSVLQKQQLELMDTVHNLVNLCTKEGVLLKGGKREEEKPFRDCADVYQAGFNKSGIYTIYINNMPEPKKVFCNMDVNGGGWTVIQHREDGSLDFQRGWKEYKMGFGNPSGEYWLGNEFIFAITSQRQYMLRIELMDWEGNRAYSQYDRFHIGNEKQNYRLYLKGHTGTAGKQSSLILHGADFSTKDADNDNCMCKCALMLTGGWWFDACGPSNLNGMFYTAGQNHGKLNGIKWHYFKGPSYSLRSTTMMIRPLDF
Take B1: the “atopic dermatitis phenotype (erythema, ear micro-haemorrhages, tail scaly plaque)” value is “dramatic amelioration of disease”. The “epidermal hyperplasia and dermal leukocyte infiltration (histology)” value (triple transgenic mice) is listed as “resolution of epidermal hyperplasia”.

Values taken from patent publication US9186390B2, “Methods and uses of TIE2 binding and/or activating agents” (Sunnybrook Health Sciences Center, priority 2010, dated 2015).
